Data as given in patent US20170157251A1 (MacroGenics, published 2017).

Tests used:
[1] = target: T1, soluble human CD19-biotin (human, UniProt P15391 20-291, limits assumed, biotin (site not stated)); assay: bifunctional (bispecific) ELISA: plate coated with soluble human CD3ε/δ, DART titrated, detected with soluble human CD19-biotin; the value reflects simultaneous engagement of both antigens
T1 construct: Detection antigen of the bifunctional ELISA
T1 sequence (looked up): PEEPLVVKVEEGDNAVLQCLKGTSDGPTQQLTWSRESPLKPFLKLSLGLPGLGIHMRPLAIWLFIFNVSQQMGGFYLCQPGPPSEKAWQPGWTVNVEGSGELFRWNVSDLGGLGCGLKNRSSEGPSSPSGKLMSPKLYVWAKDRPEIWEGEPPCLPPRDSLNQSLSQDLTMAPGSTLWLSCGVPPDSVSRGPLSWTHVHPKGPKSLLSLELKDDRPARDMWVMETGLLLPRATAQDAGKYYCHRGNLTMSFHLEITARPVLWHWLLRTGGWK

human CD19 on cells [2] = target: T2, human CD19 on cells (human, UniProt P15391 20-556); assay: cell-based or functional assay
T2 sequence (looked up): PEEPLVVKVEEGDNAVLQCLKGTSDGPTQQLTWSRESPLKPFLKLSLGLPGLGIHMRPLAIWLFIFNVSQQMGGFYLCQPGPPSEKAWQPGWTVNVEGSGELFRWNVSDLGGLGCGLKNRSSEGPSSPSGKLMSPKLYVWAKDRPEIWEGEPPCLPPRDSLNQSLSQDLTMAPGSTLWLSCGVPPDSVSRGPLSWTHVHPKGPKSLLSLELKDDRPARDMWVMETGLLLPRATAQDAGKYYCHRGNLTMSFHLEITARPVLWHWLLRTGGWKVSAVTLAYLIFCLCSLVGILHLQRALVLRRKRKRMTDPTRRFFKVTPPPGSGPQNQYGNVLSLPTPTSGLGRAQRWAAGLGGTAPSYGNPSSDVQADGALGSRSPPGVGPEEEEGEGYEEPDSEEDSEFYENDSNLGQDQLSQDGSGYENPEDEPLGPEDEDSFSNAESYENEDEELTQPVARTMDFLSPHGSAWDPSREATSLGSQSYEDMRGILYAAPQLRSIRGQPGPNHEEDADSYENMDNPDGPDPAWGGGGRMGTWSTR

Cynomolgus CD19-His [3] = target: T3, Cynomolgus CD19-His (cynomolgus monkey, UniProt A0A2K5W8L9 20-292); assay: SPR (BIAcore), DART-A 0-100 nM, soluble antigen
T3 construct: Soluble antigen in SPR; also called soluble cynomolgus monkey CD19; not shown: His tag
T3 sequence: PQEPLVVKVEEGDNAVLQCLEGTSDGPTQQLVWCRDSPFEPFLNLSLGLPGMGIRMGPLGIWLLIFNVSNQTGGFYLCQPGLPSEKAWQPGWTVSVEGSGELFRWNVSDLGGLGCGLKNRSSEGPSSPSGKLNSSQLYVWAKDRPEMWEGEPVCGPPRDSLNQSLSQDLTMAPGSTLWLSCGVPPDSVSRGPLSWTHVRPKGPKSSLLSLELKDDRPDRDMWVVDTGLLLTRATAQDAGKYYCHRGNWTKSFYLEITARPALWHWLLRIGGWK

Human CD19-His = target: T4, Human CD19-His (human, UniProt P15391 20-291, limits assumed); assay: SPR (BIAcore), DART-A 0-100 nM, soluble antigen
T4 construct: Soluble antigen in SPR; also called soluble human CD19; not shown: His tag
T4 sequence (looked up): T1 sequence (looked up)

Cynomolgus CD19-His [4] = target: T3, Cynomolgus CD19-His; assay: SPR (BIAcore), comparison of KD against human CD19-His
human CD19 on cells [5] = target: T2, human CD19 on cells; assay: cell-based or functional assay; remark: listed apart in the source
human CD19 on cells [6] = target: T2, human CD19 on cells; assay: cell-based or functional assay; remark: listed apart in the source
[7] = target: cynomolgus monkey CD19 on B cells (cynomolgus monkey); assay: cell-based or functional assay
human CD19 on cells [8] = target: T2, human CD19 on cells; assay: cell-based or functional assay; remark: listed apart in the source
[9] = target: T5, cynomolgus monkey CD3 on T cells (cynomolgus monkey, UniProt Q95LI5 22-198; Q95LI8 22-171); assay: flow cytometry on cynomolgus monkey blood leukocytes, CD4+ and CD8+ gate (T cells); detection with biotinylated anti-E-coil/K-coil mAb and streptavidin-PE
T5 construct: T cells were gated as CD4+ and CD8+; also called CD3 on cynomolgus monkey CD4+ and CD8+ T cells

human CD19 on cells [10] = target: T2, human CD19 on cells; assay: cell-based or functional assay; remark: listed apart in the source
human CD19 on cells [11] = target: T2, human CD19 on cells; assay: cell-based or functional assay; remark: listed apart in the source
human CD19 on cells [12] = target: T2, human CD19 on cells; assay: cell-based or functional assay; remark: listed apart in the source
human CD19 on cells [13] = target: T2, human CD19 on cells; assay: cell-based or functional assay; remark: listed apart in the source
human CD3 on T cells = target: T6, human CD3 on T cells (human, UniProt P07766 23-207; P04234 22-171); assay: flow cytometry on human blood leukocytes, CD4+ and CD8+ gate (T cells); detection with biotinylated anti-E-coil/K-coil mAb and streptavidin-PE
T6 construct: also called CD3 on human CD4+ and CD8+ T cells; copies: 1 + 1
T6 sequence (P07766 23-207 limits assumed, chain 1 of 2): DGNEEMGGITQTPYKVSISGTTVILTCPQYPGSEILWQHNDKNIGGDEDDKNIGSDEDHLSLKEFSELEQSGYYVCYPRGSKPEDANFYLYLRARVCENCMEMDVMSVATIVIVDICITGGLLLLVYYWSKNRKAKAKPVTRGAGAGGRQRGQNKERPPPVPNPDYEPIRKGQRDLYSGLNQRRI
T6 sequence (P04234 22-171 limits assumed, chain 2 of 2): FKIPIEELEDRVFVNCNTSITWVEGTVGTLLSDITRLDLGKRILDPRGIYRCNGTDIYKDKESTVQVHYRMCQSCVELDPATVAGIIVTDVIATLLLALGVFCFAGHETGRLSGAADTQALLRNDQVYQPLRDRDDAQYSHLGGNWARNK

T5 sequence (Q95LI5 22-198 limits assumed, chain 1 of 2): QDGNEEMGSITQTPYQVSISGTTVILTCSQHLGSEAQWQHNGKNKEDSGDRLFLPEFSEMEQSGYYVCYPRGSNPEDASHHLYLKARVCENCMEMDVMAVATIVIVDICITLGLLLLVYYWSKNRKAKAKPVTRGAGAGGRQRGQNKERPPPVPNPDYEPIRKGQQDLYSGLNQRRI
T5 sequence (Q95LI8 22-171 limits assumed, chain 2 of 2): as the sequence (P04234 22-171 limits assumed, chain 2 of 2) above, with I5V, N15K, I20V, S32T, D33N, I34N, T64A, S74N, V83L, H141R counted along it

B1: DART-A (CD19×CD3 bi-specific monovalent Fc diabody) (bispecific antibody)
chain 1: ENVLTQSPATLSVTPGEKATITCRASQSVSYMHWYQQKPGQAPRLLIYDASNRASGVPSRFSGSGSGTDHTLTISSLEAEDAATYYCFQGSVYPFTFGQGTKLEIKGGGSGGGGEVQLVESGGGLVQPGGSLRLSCAASGFTFSTYAMNWVRQAPGKGLEWVGRIRSKYNNYATYYADSVKGRFTISRDDSKNSLYLQMNSLKTEDTAVYYCVRHGNFGNSYVSWFAYWGQGTLVTVSSASTKGEVAACEKEVAALEKEVAALEKEVAALEKGGGDKTHTCPPCPAPEAAGGPSVFLFPPKPKDTLMISRTPEVTCVVVDVSHEDPEVKFNWYVDGVEVHNAKTKPREEQYNSTYRVVSVLTVLHQDWLNGKEYKCKVSNKALPAPIEKTISKAKGQPREPQVYTLPPSREEMTKNQVSLWCLVKGFYPSDIAVEWESNGQPENNYKTTPPVLDSDGSFFLYSKLTVDKSRWQQGNVFSCSVMHEALHNHYTQKSLSLSPGK
chain 2: QAVVTQEPSLTVSPGGTVTLTCRSSTGAVTTSNYANWVQQKPGQAPRGLIGGTNKRAPWTPARFSGSLLGGKAALTITGAQAEDEADYYCALWYSNLWVFGGGTKLTVLGGGGSGGGGQVTLRESGPALVKPTQTLTLTCTFSGFSLSTSGMGVGWIRQPPGKALEWLAHIWWDDDKRYNPALKSRLTISKDTSKNQVFLTMTNMDPVDTATYYCARMELWSYYFDYWGQGTTVTVSSASTKGKVAACKEKVAALKEKVAALKEKVAALKE
chain 3: not shown
notes: Three covalently bonded chains; one CD19 site and one CD3 site; Fc with L234A/L235A, knob/hole, H435R on third chain; also called CD19×CD3 bi-specific molecule; CD19×CD3 bi-specific DART-A
EC50 (read off the curve) [1]: ~80 ng/mL | EC50 of cytotoxicity against Raji/GF target cells with cynomolgus monkey PBMCs as effector cells (E:T = 30:1) (human CD19 on cells [2]): 0.013 pM | EC50 of redirected killing of HBL-2 cells, human T cells, E:T 10:1 (average) (human CD19 on cells [2]): 10.5 pM | EC50 of redirected killing of Jeko-1 cells, human T cells, E:T 10:1 (average) (human CD19 on cells [2]): 0.146 pM | EC50 of redirected killing of Raji/GF cells, human T cells, E:T 10:1 (average) (human CD19 on cells [2]): 0.307 pM | Kd (Cynomolgus CD19-His [3]): 20300 pM | koff (Cynomolgus CD19-His [3]): 0.0047 s⁻¹ | kon (Cynomolgus CD19-His [3]): 240000 M⁻¹ s⁻¹ | Kd (Human CD19-His): 2000 pM | koff (Human CD19-His): 0.00056 s⁻¹ | kon (Human CD19-His): 280000 M⁻¹ s⁻¹ | fold lower affinity than for human CD19 (Cynomolgus CD19-His [4]): ~10 fold | mean EC50 of IFN-γ release, CTL assay, purified human T cells with Raji/GF tumor cells (E:T = 10:1), n = 2 (human CD19 on cells [5]): 5.51 pM | mean EC50 of IL-2 release, CTL assay, purified human T cells with Raji/GF tumor cells (E:T = 10:1), n = 2 (human CD19 on cells [5]): 6.32 pM | mean EC50 of TNF-α release, CTL assay, purified human T cells with Raji/GF tumor cells (E:T = 10:1), n = 2 (human CD19 on cells [5]): 3.71 pM | mean EC50 of cytotoxicity, CTL assay, HBL-2 (n = 5), human T cells E:T = 10:1 (human CD19 on cells [5]): 0.11 pM | mean EC50 of cytotoxicity, CTL assay, Jeko-1 (n = 3), human T cells E:T = 10:1 (human CD19 on cells [5]): 0.15 pM | mean EC50 of cytotoxicity, CTL assay, Raji/GF (n = 5), human T cells E:T = 10:1 (human CD19 on cells [5]): 0.31 pM | EC50 of autologous B cell depletion, human PBMCs, donor Human 5 (E:T = 8:1) (human CD19 on cells [6]): 6.27 pM | EC50 of autologous B cell depletion, human PBMCs, donor Human 6 (E:T = 8:1) (human CD19 on cells [6]): 2.75 pM | EC50 of autologous B cell depletion, human PBMCs, donor Human 7 (E:T = 5:1) (human CD19 on cells [6]): 5.52 pM | EC50 of autologous B cell depletion, human PBMCs, donor Human 8 (E:T = 9:1) (human CD19 on cells [6]): 1.84 pM | mean EC50 of autologous B cell depletion, human PBMCs (human CD19 on cells [6]): 4.2 pM | EC50 of autologous B cell depletion, cynomolgus monkey PBMCs, donor Cyno 5 (E:T = 3:1) [7]: 166 pM | EC50 of autologous B cell depletion, cynomolgus monkey PBMCs, donor Cyno 6 (E:T = 2:1) [7]: 859 pM | EC50 of autologous B cell depletion, cynomolgus monkey PBMCs, donor Cyno 7 (E:T = 3:1) [7]: 107 pM | EC50 of autologous B cell depletion, cynomolgus monkey PBMCs, donor Cyno 8 (E:T = 7:1) [7]: 239 pM | mean EC50 of autologous B cell depletion, cynomolgus monkey PBMCs [7]: 343 pM | EC50 of autologous B cell depletion, human PBMCs, 0 nM ibrutinib, 48 hours (human CD19 on cells [8]): 0.79 ng/mL | binding result [9]: binds | EC50 of redirected killing of Raji/GF cells, E:T = 1:1, 72 hours (human CD19 on cells [10]): 2.79 pM | EC50 of redirected killing of Raji/GF cells, E:T = 1:1, 96 hours (human CD19 on cells [10]): 0.44 pM | EC50 of redirected killing of Raji/GF cells, E:T = 2.5:1, 72 hours (human CD19 on cells [10]): 1.54 pM | EC50 of redirected killing of Raji/GF cells, E:T = 2.5:1, 96 hours (human CD19 on cells [10]): 0.422 pM | EC50 of redirected killing of Raji/GF cells, E:T = 2.5:1, 48 hours (human CD19 on cells [11]): 1.08 pM | EC50 of redirected killing of Raji/GF cells, E:T = 5:1, 24 hours (human CD19 on cells [11]): 0.67 pM | EC50 of redirected killing of Raji/GF cells, E:T = 5:1, 48 hours (human CD19 on cells [11]): 0.38 pM | EC50 of redirected killing of Raji/GF cells, E:T = 10:1, 24 hours (human CD19 on cells [11]): 0.14 pM | EC50 of redirected killing of Raji/GF cells, E:T = 10:1, 48 hours (human CD19 on cells [11]): 0.0441 pM | EC50 of redirected killing of Raji/GF cells, T cells cultured 24 hours with 0 nM ibrutinib, E:T 10:1, 24 hours (human CD19 on cells [12]): 0.042 ng/mL | EC50 of redirected killing of Raji/GF cells, T cells cultured 48 hours with 0 nM ibrutinib, E:T 10:1, 24 hours (human CD19 on cells [12]): 0.0016 ng/mL | EC50 of redirected killing of Raji/GF cells, T cells cultured 72 hours with 0 nM ibrutinib, E:T 10:1, 24 hours (human CD19 on cells [12]): 0.0031 ng/mL | EC50 of redirected killing of Raji/GF cells, T cells pretreated 24 hours with 25 nM ibrutinib (human CD19 on cells [12]): 0.028 ng/mL | EC50 of redirected killing of Raji/GF cells, T cells pretreated 24 hours with 250 nM ibrutinib (human CD19 on cells [12]): 0.033 ng/mL | EC50 of redirected killing of Raji/GF cells, T cells pretreated 24 hours with 750 nM ibrutinib (human CD19 on cells [12]): 0.037 ng/mL | EC50 of redirected killing of Raji/GF cells, T cells pretreated 24 hours with 2500 nM ibrutinib (human CD19 on cells [12]): 0.104 ng/mL | EC50 of redirected killing of Raji/GF cells, T cells pretreated 48 hours with 25 nM ibrutinib (human CD19 on cells [12]): 0.0015 ng/mL | EC50 of redirected killing of Raji/GF cells, T cells pretreated 48 hours with 250 nM ibrutinib (human CD19 on cells [12]): 0.0011 ng/mL | EC50 of redirected killing of Raji/GF cells, T cells pretreated 48 hours with 750 nM ibrutinib (human CD19 on cells [12]): 0.0012 ng/mL | EC50 of redirected killing of Raji/GF cells, T cells pretreated 48 hours with 2500 nM ibrutinib (human CD19 on cells [12]): 0.0044 ng/mL | EC50 of redirected killing of Raji/GF cells, T cells pretreated 72 hours with 25 nM ibrutinib (human CD19 on cells [12]): 0.0021 ng/mL | EC50 of redirected killing of Raji/GF cells, T cells pretreated 72 hours with 250 nM ibrutinib (human CD19 on cells [12]): 0.002 ng/mL | EC50 of redirected killing of Raji/GF cells, T cells pretreated 72 hours with 750 nM ibrutinib (human CD19 on cells [12]): 0.0018 ng/mL | EC50 of redirected killing of Raji/GF cells, T cells pretreated 72 hours with 2500 nM ibrutinib (human CD19 on cells [12]): 0.0085 ng/mL | EC50 of redirected killing of Raji/GF cells, 0 nM ibrutinib, CTL assay 24 hours, E:T 10:1 (human CD19 on cells [13]): 0.014 ng/mL | EC50 of redirected killing of Raji/GF cells, 0 nM ibrutinib, CTL assay 48 hours, E:T 10:1 (human CD19 on cells [13]): 0.0022 ng/mL | binding result (human CD3 on T cells): binds
